B1: IKZF1 (parent)
chain: RDPFECNMCGYHSQDRYEFSSHIT

Variants of: B1
Assay: protein stability index of a GFP-peptide fusion (GPS, HEK-293T) (PSI 1-6); higher = more stable
Settings: c terminus: a fixed tail appended
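Also: lentivirally expressed fusions sorted by FACS into six bins by GFP to DsRed ratio, PSI derived from sequencing read proportions per bin multiplied by bin number.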

Protein stability index, by site and new letter:
S20: T 2.04; K 1.93; M 2.06; Q 1.94; A 2.13; W 2.15; Y 1.71; G 2.05; D 2.3; H 2.21; N 2.08; V 2.16; I 2.06; L 2.44
H12: R 2.23; C 1.82; I 2; T 2.53; V 1.75; P 2.49; F 2.15; Q 3.01; N 2.72; Y 1.97; L 2.69; E 2.39; W 1.63; K 2.27
P3: A 1.64; E 2.29; V 1.76; S 2.03; D 2.99; C 2.21; G 1.94; F 1.44; T 2.02; I 1.91; R 2.04; K 2.04
Q14: E 2.29; V 1.85; C 1.87; N 2.42; H 2.22; I 2.13; Y 2.31; R 2.25; T 2.17; M 1.86; D 2.09; W 1.22; A 1.98; S 2.43
S21: R 1.84; T 2.35; E 2.27; W 2.31; Y 1.57; F 2.06; V 2.36; G 2.38; I 2.28; A 1.81; P 2.68; M 1.84; D 2.17; L 2.03; H 2.63; C 2.21
E5: V 2.01; P 1.91; H 1.9; I 2.38; Y 1.85; K 2.07; W 1.59; M 1.88; A 2.13; R 1.92; D 2.7; C 2.11; N 1.71; F 1.78
N7: E 2.29; L 1.79; K 2.37; P 3.61; D 2.51; V 2.04; M 1.97; A 1.75; I 2.05; C 1.89; T 2.18; F 1.33
C9: K 3.19; A 2.98; H 2.63; F 2.34; V 3.06; W 2.36; M 3.06; D 3.83; G 3.02; L 3.05; E 3.7; N 3.28; R 3.24
D2: M 1.68; A 1.63; L 1.93; G 1.95; E 2.18; K 1.96; F 1.57; S 1.73; N 1.96; C 2.19; R 1.99; Q 2.04; Y 1.77; P 1.98
F4: E 2.66; T 2.97; C 2.31; D 2.9; R 3.08; N 3.05; K 2.77; I 1.89; S 2.52; Y 2.07; L 2.17; V 2.2; W 2.27; G 2.68; P 2.54; H 2.47; M 2.4; A 2.44; Q 2.91
Y17: S 2.43; V 1.76; P 2.81; N 2.83; M 2.16; Q 2.1; H 2.81; A 2.28; E 3; T 1.89; F 2.07; K 2.21
I23: V 2.43; N 2.28; H 2.57; A 2.23; Q 2.21; G 2.43; W 1.77; S 2.5; Y 1.82; M 2.27; E 3.48; L 2.15; C 2.59; K 2.75
E18: Q 1.79; G 2.63; C 1.91; F 2.39; V 2.72; H 2.08; T 1.54; S 2.11; W 1.51; A 1.91; Y 1.43; P 1.67; D 2.38; L 2.21
R1: T 2.23; I 2.13; V 2.25; E 2.67; Y 1.73; F 1.88; Q 2.55; H 2.92; D 2.73; C 2.47; P 2.43; N 2.44
G10: A 2.16; L 2.08; V 2.07; N 2.4; F 1.81; W 1.73; T 2.69; D 2.8; S 2.7; Q 2.58; H 2.33; Y 2.66; P 2.44
Y11: M 2.59; C 2.13; A 2.58; P 2.69; Q 2.61; R 2.62; W 1.45; K 3.13; I 1.86; T 2.6; G 3.49; F 2.01; H 2.71; L 2.65
F19: I 2.4; E 3.35; Y 2.47; K 3.06; H 3.13; C 2.39; N 3.27; G 3.13; A 2.59; D 3.29; T 2.94; M 2.28
R16: P 2.5; K 2.01; H 2.51; A 2.3; C 2.23; W 2.03; S 1.98; D 2.85; L 2.12; V 2.42; F 2.21; M 2.78; Y 1.75; N 2.57; I 2.74; G 2.56; T 2.6
S13: C 1.74; P 3; F 1.78; H 3.15; K 2.1; L 1.75; R 2.04; Q 2.39; I 1.91; A 2.26; W 2.28; E 2.53; T 2.1; M 1.66; D 2.49
D15: Y 1.66; L 1.81; V 1.8; W 2.13; C 2.32; T 2.12; F 1.76; S 1.54; N 2.17; I 1.56; P 2.01; R 2.14; E 1.87; A 1.98; H 1.68; K 1.65; M 2.02; G 1.98
H22: T 2.08; P 2.12; C 2.54; S 1.88; K 1.92; V 1.75; R 1.58; L 1.81; M 1.79; Y 2.84; N 2.28
T24: Y 1.39; W 2.71; D 2.68; Q 2.18; C 5.1; I 2.28; R 2.24; N 2.23; V 1.85; K 2.52; E 2.47; A 2.42
C6: R 2.06; S 2.5; L 1.99; W 2.5; I 2.14; V 2.5; Q 2.38; Y 2.04; D 3.8; A 2.5; K 2.49; N 2.56; F 1.96; E 3.58; H 2.43; P 2.23; M 2.02
M8: H 2.17; I 2.16; Y 2.4; L 2.18; F 2.23; R 2.02; V 2.3; P 2.64; T 2.39; K 2.52; A 1.81

From the supplement of paper PMC10567573
